Reference: publication PMC10938568

Target: GST-PreScission-p62 FIR 4P (human) (UniProt Q13501)
Experiment: SPR

Substance “His8-TEV-LC3B (1 to 125) (from UniProt Q9GZQ8 1-120) (natural protein)” has a Kd estimated from the kinetics of 80 nM and a half-life of 1200 s.
